The target in series [1] is T1, FADase (ferulic acid decarboxylase) (Enterobacter sp. Px6-4, UniProt C6F3U5).
T1 construct: full-length Met1-Lys168, pET-28a(+) EcoRI/HindIII, Ni-NTA purified, E. coli BL21(DE3); 23 kDa subunit, homodimer (44 kDa)
T1 sequence (C6F3U5 1-168): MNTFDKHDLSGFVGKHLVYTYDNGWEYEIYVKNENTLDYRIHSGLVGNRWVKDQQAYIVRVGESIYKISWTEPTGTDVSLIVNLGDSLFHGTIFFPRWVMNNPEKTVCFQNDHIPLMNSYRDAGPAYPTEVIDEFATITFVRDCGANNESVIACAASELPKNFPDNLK
In words: X-ray crystal structure, soaking, […] Å. The format is binding. The following applies: crystals soaked overnight with 7 mM sodium ferulate; active site of monomer A.

A further series has as its system T2, COc1cc(/C=C/C(=O)O)ccc1O.
T2 construct: full-length Met1-Lys168, pET-28a(+) EcoRI/HindIII, Ni-NTA purified, E. coli BL21(DE3); 23 kDa subunit, homodimer (44 kDa)
Kind of series: HPLC decarboxylation assay. It counts as biochemical, Enterobacter sp. Px6-4. As to conditions: 50 mM sodium phosphate pH 4.0, 28 °C (standard activity assay). An excerpt: (§1) HPLC decarboxylation assay on FADase (ferulic acid decarboxylase)

The target of series [2] is Ferulic acid decarboxylase (FADase) from Enterobacter sp. Px6-4 (Enterobacter sp. Px6-4). Kind of series: cross-linking; cross-linking of FADase with ethylene glycolbis (EGS), read on a gel.
Series [3] shares this target. Kind of series: SEC; gel-filtration / size exclusion chromatography of recombinant FADase; data not shown. Background: Size exclusion chromatography separates by hydrodynamic size, large species first.
Substrate in series [4]: COc1cc(/C=C/C(=O)O)ccc1O
In words: HPLC decarboxylation assay. The format is biochemical, Enterobacter sp. Px6-4. The following applies: 50 mM sodium phosphate pH 4.0, 28 °C (standard activity assay).
Source text: as §1

Results on five molecules are retold here after PMC3025021, “Structural Basis of Enzymatic Activity for the Ferulic Acid Decarboxylase (FADase) from Enterobacter sp. Px6-4” (PLoS ONE, 2011).

Turning to `COc1cc(/C=C/C(=O)O)ccc1O` [sodium ferulate], the “X-ray crystal structure, soaking, 2.1 Å” value in series [1] was “The crystal structure of FADase in complex with the substrate analog sodium ferulate”.

As to “FADase (ferulic acid decarboxylase) (Enterobacter sp. Px6-4; E134A)”, in the series on COc1cc(/C=C/C(=O)O)ccc1O, the Km (usually the substrate concentration at which the rate is half of its maximum) is 3520 µM; the Vmax (commonly the top rate of the reaction or transport when substrate is in excess) was 285 µM/min; the kcat (commonly the maximal rate divided by the concentration of active sites) was 0.995 s⁻¹; the kcat/Km (in general, the turnover number divided by the Michaelis constant) was 280 M⁻¹ s⁻¹.

On to “FADase (ferulic acid decarboxylase) (Enterobacter sp. Px6-4; W25A)”, for which, in the series with COc1cc(/C=C/C(=O)O)ccc1O, the Km was 730 µM, the Vmax amounted to 39.6 µM/min, the kcat came to 0.02 s⁻¹ and the kcat/Km came to 20 M⁻¹ s⁻¹.

As for “Ferulic acid decarboxylase (FADase) from Enterobacter sp. Px6-4 (enzyme)”, the stoichiometry N in series [2] and in series [3] was 2 in each case.

B1: FADase (ferulic acid decarboxylase) (Enterobacter sp. Px6-4) (protein)
chain: MNTFDKHDLSGFVGKHLVYTYDNGWEYEIYVKNENTLDYRIHSGLVGNRWVKDQQAYIVRVGESIYKISWTEPTGTDVSLIVNLGDSLFHGTIFFPRWVMNNPEKTVCFQNDHIPLMNSYRDAGPAYPTEVIDEFATITFVRDCGANNESVIACAASELPKNFPDNLK
notes: full-length Met1-Lys168, pET-28a(+) EcoRI/HindIII, Ni-NTA purified, E. coli BL21(DE3); 23 kDa subunit, homodimer (44 kDa)
Turning to B1, in series [4], the Km came to 2360 µM, the Vmax amounted to 606 µM/min, the kcat is 2.15 s⁻¹ and the kcat/Km was determined as 910 M⁻¹ s⁻¹.
